Experimental data as given in patent US20260159579A1 (Pfizer, published 2026).
Residue numbers refer to the chain shown, from its start. Several values for one entry are separate records, joined by “and”; a condition that tells them apart may be missing. Identical values can stand only once.

T1: Mouse Fc-human GDF15 (Mu IgG1Fc_Fxa_Hu GDF15) (human)
T1 construct: Whole entry is the fusion: mouse IgG1 Fc, FXa site and linker, mature human GDF15; described as dimeric; also called Murine dimeric IgG1 Fc-human GDF-15 with FXa cleavage site; control human GDF15
T1 chain: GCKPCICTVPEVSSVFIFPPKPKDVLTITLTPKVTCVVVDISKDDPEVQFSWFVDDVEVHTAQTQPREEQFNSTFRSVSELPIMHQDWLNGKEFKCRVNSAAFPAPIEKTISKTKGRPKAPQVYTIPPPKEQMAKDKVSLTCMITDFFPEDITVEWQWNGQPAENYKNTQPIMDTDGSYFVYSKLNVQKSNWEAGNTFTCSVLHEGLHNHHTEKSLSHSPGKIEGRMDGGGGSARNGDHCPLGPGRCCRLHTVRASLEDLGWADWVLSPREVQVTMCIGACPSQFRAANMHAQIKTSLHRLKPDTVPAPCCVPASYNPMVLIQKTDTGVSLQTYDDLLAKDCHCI

B1: GDF15_0297 (antibody, mouse IgG1, kappa, V domains shown)
VH: QVQLQQPGAELVKPGASVKMSCKASGYPFEGWYIHWVKQRPGQGLEWMGWNNPRTGLTNHAQKFQGKVTMTRDTSSSTAYMQLSSLTSEDSAVYYCARGVGADAAFDIWGQGTTLTVSS
VL: DIVMTQSPSSLSVSAGEKVTMSCRSSQSLLWKHGYNYLDWYQQKPGQPPKLLIYLDRNRAHGVPDRFTGSGSGTDFTLTISSVQAEDLAVYYCMQSFETPITFGGGTKLEIKR
notes: Tested in bivalent format; also called GDF15_297
B2: GDF15_0301 (antibody, mouse IgG1, kappa, V domains shown)
VH: B1 VH with V68A, M70L, R72V
VL: B1 VL with M4L
notes: Tested in bivalent format; also called GDF15_301; mAB2
B3: GDF15_0470 (antibody, human IgG1, kappa, V domains shown)
VH: QVQLVQSGAEVKKPGASVKVSCKASGYPFEGWYIHWVRQAPGQGLEWMGWNNPRTGLTNHAQKFQGRVTMTRDTSISTAYMELSRLRSDDTAVYYCARGVGADAAFDIWGQGTMVTVSS
VL: EIVLTQSPATLSLSPGERATLSCRSSQSLLWKHGYNYLDWYQQKPGQAPRLLIYLDRNRAHGIPARFSGSGSGTDFTLTISSLEPEDFAVYYCMQSFETPITFGQGTKVEIKR
notes: Tested in bivalent format; also called GDF15-470
B4: GDF15_014 (antibody, human IgG1, kappa, V domains shown)
VH: QVQLVQSGAEVKKPGSSVKVSCKASGYTFSSYNIDWVRQAPGQGLEWMGQINPINGLAFYNQKFQGRVTITADESTSTAYMELSSLRSEDTAVYYCAREAITTVGAMDYWGQGTLVTVSS
VL: EIVLTQSPATLSLSPGERATLSCRTSQNVHNYLAWYQQKPGQAPRLLIYDASNRATGIPARFSGSGSGTDFTLTISSLEPEDFAVYYCQQFWSDPYTFGQGTKVEIKR
notes: Tested in bivalent format
B5: GDF15_015 (antibody, human IgG1, kappa, V domains shown)
VH: B4 VH with S31D, I34M, I54N, M107T
VL: B4 VL with N31S, R54L, T56D, W92S, S93N, Y96W
notes: Tested in bivalent format
B6: GDF15_017 (antibody, human IgG1, kappa, V domains shown)
VH: B4 VH with S30T, S31D, I54N, T91N
VL: B4 VL with N28S, N31S, S52K, N53T, W92S
notes: Tested in bivalent format
B7: GDF15_020 (antibody, human IgG1, kappa, V domains shown)
VH: B4 VH with S31D, I34M, I54N, F59N
VL: B4 VL with T25A, V29L, N31S, N53T, T56D
notes: Tested in bivalent format
B8: GDF15_010 (antibody, human IgG1, kappa, V domains shown)
VH: B4 VH with S31D, Q50G, I54N, Y60F
VL: B4 VL with N28S, V29L, N31S, S93N, Y96W
notes: Tested in bivalent format
B9: GDF15_004 (antibody, human IgG1, kappa, V domains shown)
VH: B4 VH with I54N, F59N, N61A, V104I
VL: B4 VL with Q27E, N28S, N31S, N53T, T56D
notes: Tested in bivalent format
B10: GDF15_003 (antibody, human IgG1, kappa, V domains shown)
VH: B4 VH with S30T, I54N, A100Q
VL: B4 VL with T25A, N28S, V29L, H30S, N31S, S52K, T56D, W92S
notes: Tested in bivalent format
B11: GDF15_022 (antibody, human IgG1, kappa, V domains shown)
VH: B4 VH with S31D, I54N, A58I, Y60F, A100V
VL: B4 VL with N28S, N31S, S52K, N53T, T56D, W92S
notes: Tested in bivalent format
B12: GDF15_013 (antibody, human IgG1, kappa, V domains shown)
VH: B4 VH with S31D, I34M, Q50G, I54N
VL: B4 VL with Q27E, N28S, N31S, S93N, D94W, Y96W
notes: Tested in bivalent format
B13: GDF15_021 (antibody, human IgG1, kappa, V domains shown)
VH: B4 VH with Q50G, A58I, Y60F, Y109H
VL: B4 VL with Q27E, N31S, R54L, T56D
notes: Tested in bivalent format

Legend:
[1] = molecular target: T1, Mouse Fc-human GDF15 (Mu IgG1Fc_Fxa_Hu …); test: SPR BIAcore T200, 37C; Fc-GDF15 captured, IgG as analyte; average of runs
Experimental: (§1) Mouse Fc-human GDF15 (Mu IgG1Fc_Fxa_Hu GDF15; SEQ ID NO:2), Mouse Fc-mouse GDF15 (Mu IgG1Fc_Fxa_Mu GDF15; SEQ ID NO:5) and Mouse Fc-cynomolgus monkey GDF15 (Mu IgG1Fc_Fxa_Cyno GDF15; SEQ ID NO:4) were captured onto three different flow cells of a CM4 sensorchip (catalogue number BR100534, GE Healthcare) surface using the Mouse Antibody Capture Kit (BR100838, GE Healthcare) according to the manufacturer's protocol. The running and sample bufferwas 10 mM HEPES pH 7.4, 0.15M NaCl, 3 mM EDTA, 0.05% P-20 (HBS-EP+). The final capture levels of Mu IgG1Fc_Fxa_Hu GDF15, Mu IgG1Fc_Fxa_Mu GDF15 and Mu IgG1Fc_Fxa_Cyno GDF15 were 40 resonance units (RU), 32 RU and 25 RU respectively. Flow cell 1 was used as a reference flow cell. […] The dissociation was monitored for 2.8 hours and the surface was regenerated with 10 mM Glycine pH 1.7. Binding affinities and rate constants were determined for murine and cynomolgus monkey GDF15 by fitting the resulting sensorgram data to a 1:1 Langmuir model in BIAcore T200 Evaluation software version 2.0 (GE Healthcare).
(§2) Additionally, the binding of clone GDF15_001 to cynomolgus monkey and mouse GDF15 was measured using above mentioned BIAcore assay (Table 7).

[2] = molecular target: T1, Mouse Fc-human GDF15 (Mu IgG1Fc_Fxa_Hu …); test: SPR BIAcore T200, 37C; Fc-GDF15 captured, IgG as analyte
Experimental: as §1, §2

[3] = molecular target: T1, Mouse Fc-human GDF15 (Mu IgG1Fc_Fxa_Hu …); test: SPR BIAcore T200; summary sentence for the clones of Table 6
Experimental: as §1, §2

| Binder | Kd [1] | koff [1] | kon [1] | Kd [2] | T½ min [2] | koff [2] | kon [2] | Kd [3] |
| --- | --- | --- | --- | --- | --- | --- | --- | --- |
| B1 | < 10 pM | 1.19e-05 s⁻¹ | 5.52e+06 M⁻¹ s⁻¹ | < 10 pM | 17.7 h and 14.9 h | 1.09e-05 s⁻¹ and 1.29e-05 s⁻¹ | 5.54e+06 M⁻¹ s⁻¹ and 5.5e+06 M⁻¹ s⁻¹ | < 150 pM |
| B2 | < 10 pM | 6.97e-06 s⁻¹ | 4.72e+06 M⁻¹ s⁻¹ | < 10 pM |  |  | 3.36e+06 M⁻¹ s⁻¹ and 5.58e+06 M⁻¹ s⁻¹ and 5.22e+06 M⁻¹ s⁻¹ | < 150 pM |
| B3 | < 10 pM | 4.76e-05 s⁻¹ | 1.25e+07 M⁻¹ s⁻¹ | < 10 pM | 3.7 h and 4.47 h | 5.21e-05 s⁻¹ and 4.3e-05 s⁻¹ | 1.2e+07 M⁻¹ s⁻¹ and 1.3e+07 M⁻¹ s⁻¹ | < 150 pM |
| B4 | < 10 pM | 1.64e-05 s⁻¹ | 1.89e+06 M⁻¹ s⁻¹ | < 10 pM | 10.7 h and 13 h | 1.79e-05 s⁻¹ and 1.48e-05 s⁻¹ | 1.88e+06 M⁻¹ s⁻¹ and 1.9e+06 M⁻¹ s⁻¹ |  |
| B5 | 58.4 pM | 0.000101 s⁻¹ | 1.74e+06 M⁻¹ s⁻¹ | 59.4 pM and 57.3 pM | 1.94 h and 1.86 h | 9.93e-05 s⁻¹ and 0.000104 s⁻¹ | 1.67e+06 M⁻¹ s⁻¹ and 1.81e+06 M⁻¹ s⁻¹ |  |
| B6 | 34.9 pM | 8.42e-05 s⁻¹ | 2.57e+06 M⁻¹ s⁻¹ | 26.7 pM and 43 pM | 2.35 h and 2.22 h | 8.18e-05 s⁻¹ and 8.66e-05 s⁻¹ | 1.9e+06 M⁻¹ s⁻¹ and 3.24e+06 M⁻¹ s⁻¹ |  |
| B7 | 131 pM | 0.000104 s⁻¹ | 829000 M⁻¹ s⁻¹ | 97.4 pM and 165 pM | 2.03 h and 1.7 h | 9.46e-05 s⁻¹ and 0.000113 s⁻¹ | 972000 M⁻¹ s⁻¹ and 686000 M⁻¹ s⁻¹ | < 150 pM |
| B8 | 15.7 pM | 1.63e-05 s⁻¹ | 1.1e+06 M⁻¹ s⁻¹ | 11.3 pM and 20.1 pM | 13.1 h and 10.8 h | 1.47e-05 s⁻¹ and 1.78e-05 s⁻¹ | 1.31e+06 M⁻¹ s⁻¹ and 885000 M⁻¹ s⁻¹ |  |
| B9 | 37 pM | 7.67e-05 s⁻¹ | 2.09e+06 M⁻¹ s⁻¹ | 32.2 pM and 41.9 pM | 2.7 h and 2.35 h | 7.14e-05 s⁻¹ and 8.2e-05 s⁻¹ | 2.22e+06 M⁻¹ s⁻¹ and 1.96e+06 M⁻¹ s⁻¹ |  |
| B10 | 27.1 pM | 8.2e-05 s⁻¹ | 3.03e+06 M⁻¹ s⁻¹ | 27.4 pM and 26.8 pM | 2.67 h and 2.1 h | 7.22e-05 s⁻¹ and 9.19e-05 s⁻¹ | 2.64e+06 M⁻¹ s⁻¹ and 3.43e+06 M⁻¹ s⁻¹ |  |
| B11 | 15.6 pM | 1.61e-05 s⁻¹ | 1.08e+06 M⁻¹ s⁻¹ | 13.2 pM and 17.9 pM | 10.9 h and 13.3 h | 1.77e-05 s⁻¹ and 1.45e-05 s⁻¹ | 1.34e+06 M⁻¹ s⁻¹ and 813000 M⁻¹ s⁻¹ | < 150 pM |
| B12 | 18 pM | 7.08e-05 s⁻¹ | 4.86e+06 M⁻¹ s⁻¹ | 27.5 pM and 10.3 pM | 2.89 h and 2.56 h | 6.66e-05 s⁻¹ and 7.51e-05 s⁻¹ |  |  |
| B13 | 154 pM | 0.000322 s⁻¹ | 2.09e+06 M⁻¹ s⁻¹ | 142 pM and 165 pM | 0.661 h and 0.547 h | 0.000291 s⁻¹ and 0.000352 s⁻¹ | 2.05e+06 M⁻¹ s⁻¹ and 2.14e+06 M⁻¹ s⁻¹ | < 150 pM |
